Article doi:10.1101/2023.03.21.532770 (bioRxiv, 2023)

Biological target: the molecule itself
Assay: crystal structure

B1: mouse 2,4-Dienoyl-CoA reductase 1 (Decr1) (enzyme, UniProt Q9CQ62 35-335, looked up)
chain: SKDAPQSKFFQPVLKPMLPPDAFQGKVAFITGGGTGLGKAMTTFLSTLGAQCVIASRNIDVLKATAEEISSKTGNKVHAIRCDVRDPDMVHNTVLELIKVAGHPDVVINNAAGNFISPSERLTPNGWKTITDIVLNGTAYVTLEIGKQLIKAQKGAAFLAITTIYAESGSGFVMPSSSAKSGVEAMNKSLAAEWGRYGMRFNIIQPGPIKTKGAFSRLDPTGRFEKEMIDRIPCGRLGTMEELANLATFLCSDYASWINGAVIRFDGGEEVFLSGEFNSLKKVTKEEWDIIEGLIRKTKGS
stoichiometry N: 4
